Measured values as given in patent US11266762B2, “Methods and kits for producing a fibrin matrix” (Kuros Biosurgery AG, priority 2018, dated 2022).
Values joined by “and” are separate entries in the source; they are usually repeats but may differ in a detail not shown here. Identical values can stand only once.

Columns and labels:
fibrin matrix = target: T1, fibrin matrix (Homo sapiens, UniProt P02671+P02675+P02679); test: Retention assay: covalent binding of TGplPTH1-34 to fibrin matrix (unbound peptide extracted, PTH1-34 ELISA); details: for % unbound TGplPTH1-34 in fibrin matrix: 1 mg/ml final; for Average % unbound ± SD: both experiments
T1 construct: thrombin on one hand cleaves fibrinogen leading to fibrin polymers; purchased Baxter Healthcare AG (ARTISS®)
T1 sequence (P02671 36-866 limits assumed): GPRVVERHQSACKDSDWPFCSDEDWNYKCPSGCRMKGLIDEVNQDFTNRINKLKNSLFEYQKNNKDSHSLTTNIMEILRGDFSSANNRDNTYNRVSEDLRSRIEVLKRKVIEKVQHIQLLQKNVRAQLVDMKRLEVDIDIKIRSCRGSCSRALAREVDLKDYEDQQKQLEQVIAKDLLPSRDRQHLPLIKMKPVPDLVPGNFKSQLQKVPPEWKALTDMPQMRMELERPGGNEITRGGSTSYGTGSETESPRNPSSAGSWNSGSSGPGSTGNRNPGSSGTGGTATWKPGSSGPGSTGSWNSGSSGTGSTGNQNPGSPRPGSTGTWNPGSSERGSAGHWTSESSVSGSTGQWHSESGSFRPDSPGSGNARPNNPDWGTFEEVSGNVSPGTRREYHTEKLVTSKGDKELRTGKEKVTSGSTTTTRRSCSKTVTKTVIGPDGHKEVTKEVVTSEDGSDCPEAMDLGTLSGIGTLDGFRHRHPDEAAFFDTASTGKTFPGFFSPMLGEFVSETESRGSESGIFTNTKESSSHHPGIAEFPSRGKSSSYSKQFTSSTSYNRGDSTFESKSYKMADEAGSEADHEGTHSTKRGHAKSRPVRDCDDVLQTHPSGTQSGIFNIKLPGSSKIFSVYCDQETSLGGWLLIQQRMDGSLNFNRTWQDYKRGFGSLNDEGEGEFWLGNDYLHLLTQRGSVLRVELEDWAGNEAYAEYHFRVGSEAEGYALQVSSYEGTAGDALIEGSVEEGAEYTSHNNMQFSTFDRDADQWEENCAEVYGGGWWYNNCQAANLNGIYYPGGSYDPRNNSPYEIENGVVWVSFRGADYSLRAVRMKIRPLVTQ
T1 sequence (P02675 45-491 limits assumed): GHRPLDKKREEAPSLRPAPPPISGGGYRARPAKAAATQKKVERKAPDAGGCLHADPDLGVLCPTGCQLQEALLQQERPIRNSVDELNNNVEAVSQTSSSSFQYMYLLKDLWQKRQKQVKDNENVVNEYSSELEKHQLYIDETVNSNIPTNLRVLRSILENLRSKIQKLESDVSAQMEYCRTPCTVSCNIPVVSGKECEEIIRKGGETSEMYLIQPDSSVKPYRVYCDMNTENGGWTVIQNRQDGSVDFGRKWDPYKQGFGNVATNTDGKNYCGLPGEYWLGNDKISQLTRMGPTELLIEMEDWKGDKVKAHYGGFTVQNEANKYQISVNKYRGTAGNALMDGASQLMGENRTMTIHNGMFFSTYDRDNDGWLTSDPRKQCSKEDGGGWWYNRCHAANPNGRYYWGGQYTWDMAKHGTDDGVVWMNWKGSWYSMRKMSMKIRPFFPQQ
T1 sequence (P02679 27-433 limits assumed): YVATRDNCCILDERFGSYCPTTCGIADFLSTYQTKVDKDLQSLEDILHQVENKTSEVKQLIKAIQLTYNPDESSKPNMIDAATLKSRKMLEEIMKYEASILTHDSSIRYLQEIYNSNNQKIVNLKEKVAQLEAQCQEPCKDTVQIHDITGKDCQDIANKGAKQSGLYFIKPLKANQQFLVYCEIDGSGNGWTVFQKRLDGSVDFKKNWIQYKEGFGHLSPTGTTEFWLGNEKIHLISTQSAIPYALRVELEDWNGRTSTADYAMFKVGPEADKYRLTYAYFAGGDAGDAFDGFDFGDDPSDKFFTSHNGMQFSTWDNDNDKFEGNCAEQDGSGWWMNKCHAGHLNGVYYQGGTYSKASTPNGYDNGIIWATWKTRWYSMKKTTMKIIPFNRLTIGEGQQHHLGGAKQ
Experimental: The percentage of covalent TGplPTH1-34 binding to fibrin matrices was determined in fibrin matrices prepared with two different methods using an indirect assay. With this assay, non-covalently bound TGplPTH1-34 that can be washed out of the matrix is determined. In the first method (pre-mixing), the two components of the fibrin sealant, ARTISS® were thawed and TGplPTH1-34 was premixed with the fibrinogen component at a concentration of 2 mg/ml. Immediately after mixing, the two components of the fibrin sealant were frozen again and stored at −20° C. The samples were then thawed, and the two components of the sealant were mixed. The final concentration of TGplPTH1-34 in mixed fibrin sealant was 1 mg/ml.
In the second method, the two fibrin sealant components were directly mixed with TGplPTH1-34 solubilized in water to achieve a final concentration of 1 mg/ml (see FIG. 1A).
To evaluate the amount of TGplPTH1-34 covalently bound to the fibrin matrix with the two methods, samples prepared by either of the two methods were subjected to a retention assay. Aliquots of 50 μl were added to 1.5 ml Eppendorf tubes. The fibrin matrices were then incubated at 37° C. for 1 hour. Unbound TGplPTH1-34 was extracted from the fibrin matrix by addition of 1.5 ml extraction buffer (50 mM Tris pH 9.4, 1M NaCl, 0.1% Tween 20) supplemented with protease Inhibitors (Roche Cat #11836153001 cOmplete™, Mini Protease Inhibitor Co) and incubated under constant shaking. After 3 hours the supernatant was collected and 1.5 ml of fresh extraction buffer was added to the fibrin matrix. This extraction step was repeated after 6, 24, 30 and 48 h. Collected supernatants were stored at −20° C. until further processing.
To determine the amount of unbound TGplPTH1-34, the 5 collected supernatants were thawed and pooled. TGplPTH1-34 in the pool was determined by ELISA with a commercial PTH1-34 ELISA kit (Immutopics, Cat *60-3900) following the manufacturer's recommendation. Two independent experiments (three samples per fibrin matrix and experiment) were performed with both preparation methods and the amount of TGplPTH1-34 not bound to the fibrin matrix was determined.

fibrinogen solution = test: Stability of TGplPTH1-34 over time in fibrinogen solution stored at room temperature (HPLC-UV); format: physicochemical; details: for TGplPTH1-34 content Mean ± SD / % loss of TGplPTH1-34: in fibrinogen solution; for TGplPTH1-34 content Mean ± SD: room temperature (20-25° C.); for % loss of TGplPTH1-34: room temperature
Experimental: In order to evaluate the stability of TGplPTH1-34 in the fibrinogen component over time, TGplPTH1-34 was mixed with a fibrinogen solution and stored at room temperature.
TGplPTH1-34 was added to fibrinogen solution at a concentration of 266 μg/ml and incubated at room temperature for up to 34 days. Samples were taken at indicated time points and TGplPTH1-34 concentration was determined by HPLC. Briefly, TGplPTH1-34 was quantified with a HPLC-UV method using a Zorbax Agilent RP18 column (4.6×150 mmm, 5 μm, 300 A) for the separation of related substances. As eluent A: 0.1% TFA, 1% ACN in water and as eluent B: 0.1% TFA in ACN was used. The gradient was 0 min. 26% B; 15 min 38% B; 18 min. 90% B; 22 min 26% B; 24 min 26% B. The injection volume was 20 μl and the flow rate was 1 ml/min. The column temperature was 35° C. A reference standard was used for the calibration curve.
The results from the TGplPTH1-34 stability analysis in fibrinogen stored at room temperature (20-25° C.) for up to 34 days are shown in Table 2.

## TGplPTH1-34: PTH fusion peptide: TG substrate domain, plasmin cleavage site, PTH1-34; NQEQVSPLYKNRSVSEIQLMHNLGKHLNSMERVEWLRKKLQDVHNF (Synthetic fusion protein)
Fibrin matrix; First method (pre-mixing with fibrinogen component, refrozen), Experiment 1, samples 1-3
  % unbound TGplPTH1-34 in fibrin matrix: 16.8% and 14.4% and 13.9%
Fibrin matrix; First method (pre-mixing with fibrinogen component, refrozen), Experiment 2, samples 1-3
  % unbound TGplPTH1-34 in fibrin matrix: 14.7% and 10.2% and 15.1%
Fibrin matrix; First method (pre-mixing)
  Average % unbound ± SD: 14.2 ± 2.2%
Fibrin matrix; Second method (direct mixing)
  Average % unbound ± SD: 14.0 ± 1.4%
Fibrin matrix; Second method (sealant components directly mixed with TGplPTH1-34 in water), Experiment 1, samples 1-3
  % unbound TGplPTH1-34 in fibrin matrix: 13.9% and 11.3% and 15.4%
Fibrin matrix; Second method (sealant components directly mixed with TGplPTH1-34 in water), Experiment 2, samples 1-3
  % unbound TGplPTH1-34 in fibrin matrix: 14.4% and 14.7%
Fibrinogen solution; 3-5 days in fibrinogen solution at room temperature (time frame for manufacturing)
  % of the product degraded: 4.3-7.8%
Fibrinogen solution; day 0, added at 266 μg/ml
  TGplPTH1-34 content Mean ± SD: 232 ± 0.99 µg/mL
Fibrinogen solution; day 3
  % loss of TGplPTH1-34: −4.3%
  TGplPTH1-34 content Mean ± SD: 222 ± 0.80 µg/mL
Fibrinogen solution; day 5
  % loss of TGplPTH1-34: −7.8%
  TGplPTH1-34 content Mean ± SD: 214 ± 1.48 µg/mL
Fibrinogen solution; day 7
  % loss of TGplPTH1-34: −10.3%
  TGplPTH1-34 content Mean ± SD: 208 ± 1.76 µg/mL
Fibrinogen solution; day 14
  % loss of TGplPTH1-34: −17.2%
  TGplPTH1-34 content Mean ± SD: 192 ± 2.28 µg/mL
Fibrinogen solution; day 21
  % loss of TGplPTH1-34: −24.1%
  TGplPTH1-34 content Mean ± SD: 176 ± 1.57 µg/mL
Fibrinogen solution; day 29
  % loss of TGplPTH1-34: −25.9%
  TGplPTH1-34 content Mean ± SD: 172 ± 2.51 µg/mL
Fibrinogen solution; day 34
  % loss of TGplPTH1-34: −28.0%
  TGplPTH1-34 content Mean ± SD: 167 ± 1.2 µg/mL
Fibrinogen solution; exposure for more than 5 days at room temperature
  degradation of the fusion peptide in fibrinogen solution: substantial degradation
